Measurements from patent publication US20210300992A1 (Stanford University, published 2021).
Positions count from the first letter of the chain named. Names and notes keep the numbering of the source.

T1: wild-type human gp130 CBM domain displayed on the surface of yeast (human, UniProt P40189 124-324)
T1 construct: also called gp130 wild-type (WT); wild-type gp130
T1 chain: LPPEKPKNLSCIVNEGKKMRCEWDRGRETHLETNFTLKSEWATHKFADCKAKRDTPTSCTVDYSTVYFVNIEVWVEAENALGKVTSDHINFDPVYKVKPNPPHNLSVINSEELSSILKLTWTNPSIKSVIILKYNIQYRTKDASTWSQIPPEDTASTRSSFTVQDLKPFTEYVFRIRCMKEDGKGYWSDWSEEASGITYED

T2: LIFR CBMI-Ig-like-CBMII wild-type Fc fusion homodimer (human, UniProt P42702 45-534)
T2 construct: Homodimer through the Fc; The engineered counterparts use a 3x GS linker and a human IgG1 Fc; also called LIFR-WT-Fc; LIFR WT Fc; not shown: linker and Fc domain
T2 sequence: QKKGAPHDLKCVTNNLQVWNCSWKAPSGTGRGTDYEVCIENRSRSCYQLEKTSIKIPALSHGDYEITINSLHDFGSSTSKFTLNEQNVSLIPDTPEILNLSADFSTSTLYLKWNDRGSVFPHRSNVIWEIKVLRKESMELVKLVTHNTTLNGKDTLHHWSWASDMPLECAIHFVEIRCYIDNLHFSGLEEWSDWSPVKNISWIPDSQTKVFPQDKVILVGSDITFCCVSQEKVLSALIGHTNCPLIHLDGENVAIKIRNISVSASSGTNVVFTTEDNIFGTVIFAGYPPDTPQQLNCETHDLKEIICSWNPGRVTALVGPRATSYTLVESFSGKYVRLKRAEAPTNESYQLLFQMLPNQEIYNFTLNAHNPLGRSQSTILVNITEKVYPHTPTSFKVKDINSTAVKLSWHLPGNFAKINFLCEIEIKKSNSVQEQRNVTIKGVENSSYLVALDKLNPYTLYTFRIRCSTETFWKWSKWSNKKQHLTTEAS

B1: 8M (receptor)
yeast-displayed receptor fragment: T1 chain with E4K, K5R, N14D, K45E, F46L, K83R, Y95D, N100S
notes: 8 mutations, all marked; also called 8M (Rnd 1); E4K-K5R-N14D-K45E-F46L-K83R-Y95D-N100S
B2: gp130 ELDME variant displayed on the surface of yeast (receptor)
chain: T1 chain with K45E, F46L, Y95D, I130M, K184E
notes: also called K45E-F46L-Y95D-I130M-K184E
B3: LIFR CBMI-Ig-like-CBMII (VPRVVAID)-gp130 CBM (ELDME) Fc fusion homodimer (Fc fusion)
chain: QKKGAPHDLKCVTNNLQVWNCSWKAPSGTGRGTDYEVCIENRSRSCYQLEKTSIKIPALSHGDYEITINSLHDFGSSTSKFTLNEQNVSLIPDTPEILNLSADFSTSTLYLKWNDRGSVFPHRSNVIWEIKVLRKESMELVKLVTHNTTLNGKDTLHHWSWASDMPLECAIHFVEIRCYIDNLHFSGLEEWSDWSPVKNISWIPDSQTKVFPQDKVVPVGSDITFCCVSQEKVLSALIGRTNCPLIHLDGENVAIKVRNVSASASSGTNVVFITEDDIFGTVIFAGYPPDTPQQLNCETHDLKEIICSWNPGRVTALVGPRATSYTLVESFSGKYVRLKRAEAPTNESYQLLFQMLPNQEIYNFTLNAHNPLGRSQSTILVNITEKVYPHTPTSFKVKDINSTAVKLSWHLPGNFAKINFLCEIEIKKSNSVQEQRNVTIKGVENSSYLVALDKLNPYTLYTFRIRCSTETFWKWSKWSNKKQHLTTEASGGGGSGGGGSGGGGSGGGGSGGGGSLPPEKPKNLSCIVNEGKKMRCEWDRGRETHLETNFTLKSEWATHELADCKAKRDTPTSCTVDYSTVYFVNIEVWVEAENALGKVTSDHINFDPVDKVKPNPPHNLSVINSEELSSILKLTWTNPSIKSVMILKYNIQYRTKDASTWSQIPPEDTASTRSSFTVQDLKPFTEYVFRIRCMKEDGEGYWSDWSEEASGITYEDGSGSGSDKTHTCPPCPAPELLGGPSVFLFPPKPKDTLMISRTPEVTCVVVDVSHEDPQVKFNWYVDGVQVHNAKTKPREQQYNSTYRVVSVLTVLHQNWLDGKEYKCKVSNKALPAPIEKTISKAKGQPREPQVYTLPPSREEMTKNQVSLTCLVKGFYPSDIAVEWESNGQPENNYKTTPPVLDSDGSFFLYSKLTVDKSRWQQGNVFSCSVMHEALHNHYTQKSLSLSPGK
notes: also called LIFR-gp130 Fusion-Fc; LIFR-gp130 V-E fusion Fc
B4: human leukemia inhibitory factor (LIF), soluble (ligand)
chain: not shown
notes: also called human LIF; soluble human LIF
B5: wild-type human LIFR displayed on the surface of yeast (receptor)
chain: T2 sequence
notes: also called LIFR wild-type (WT); wild-type LIFR
B6: LIFR VPRVVAID variant displayed on the surface of yeast (receptor)
chain: T2 sequence with I217V, L218P, H240R, I257V, I260V, V262A, T273I, N277D
notes: also called I217V-L218P-H240R-I257V-I206V-V262A-T2711-N277D
B7: gp130 CBM domain (ELDME) Fc fusion homodimer (Fc fusion)
chain: LPPEKPKNLSCIVNEGKKMRCEWDRGRETHLETNFTLKSEWATHELADCKAKRDTPTSCTVDYSTVYFVNIEVWVEAENALGKVTSDHINFDPVDKVKPNPPHNLSVINSEELSSILKLTWTNPSIKSVMILKYNIQYRTKDASTWSQIPPEDTASTRSSFTVQDLKPFTEYVFRIRCMKEDGEGYWSDWSEEASGITYEDGSGSGSDKTHTCPPCPAPELLGGPSVFLFPPKPKDTLMISRTPEVTCVVVDVSHEDPQVKFNWYVDGVQVHNAKTKPREQQYNSTYRVVSVLTVLHQNWLDGKEYKCKVSNKALPAPIEKTISKAKGQPREPQVYTLPPSREEMTKNQVSLTCLVKGFYPSDIAVEWESNGQPENNYKTTPPVLDSDGSFFLYSKLTVDKSRWQQGNVFSCSVMHEALHNHYTQKSLSLSPGK
notes: also called gp130-ELDME-Fc; gp130 ELDME Fc

Key:
[1] = molecular target: B4; assay: yeast surface display, flow cytometry; soluble human LIF titrated (0.01 to 1000 nM), detected with a fluorescent antibody
Experimental: (§1) Binding to human LIF was measured via fluorescent antibody detection using flow cytometry.
(§2) Results for gp130 wild-type (WT) (circles), the “8M” variant (E4K-K5R-N14D-K45E-F46L-K83R-Y95D-N100S) (squares), and the ELDME variant (mutations in FIG. 4, panel A) (triangles) are shown.

[2] = molecular target: B4; assay: yeast surface display, flow cytometry; Score column of the table of sorted gp130 CBM variants (the filing gives 100 pM and 1 nM human LIF for the gp130 binding scores)
[3] = molecular target: B4; assay: yeast surface display titration with human LIF, flow cytometry
Experimental: as §1

[4] = molecular target: B4; assay: yeast surface display titration with human LIF, flow cytometry; reference yeast-displayed gp130 WT
Experimental: as §1, §2

[5] = molecular target: B4; assay: KinExA with soluble human LIF; inhibitor titrated
Experimental: (§3) Binding of the purified LIF inhibitors to soluble LIF was tested using KinExA. Shown in FIG. 10 are binding results for: (1) a homodimer having a WT LIFR CBMI-Ig-like-CBMII Fc fusion as each monomer; (2) a homodimer having LIFR […] Fc as each monomer;

[6] = molecular target: B5; assay: yeast-displayed receptor, no LIF added, anti-Fc detection by flow cytometry
[7] = molecular target: T1, wild-type human gp130 CBM domain …; assay: as above
[8] = molecular target: B4; assay: KinExA with soluble human LIF; KD calculated by the KinExA software. The unit is written as printed; the curve lies beside that of LIFR VPRVVAID Fc (Kd in pM)
Experimental: as §3
and (3) a homodimer having LIFR-gp130 V-E fusion Fc as each monomer. KD values calculated from KinExA software and fitted curves are shown.

[9] = molecular target: T2, LIFR CBMI-Ig-like-CBMII wild-type Fc …; assay: KinExA with soluble human LIF; KD calculated by the KinExA software
Experimental: as §3

[10] = molecular target: B4; assay: yeast surface display, flow cytometry; soluble human LIF titrated (0.001 to 100 nM), detected with a fluorescent antibody
Experimental: as §1
(§4) Results for LIFR wild-type (WT) (circles), the “PDD” variant (L218P-N42D-N277D) (squares), and the […] variant (mutations in FIG. 4, panel A) (triangles) are shown.

[11] = molecular target: B4; assay: yeast surface display, flow cytometry; score from summed fluorescence at 10 pM and 100 pM human LIF, normalized to wild-type and to expression
[12] = molecular target: B4; assay: yeast surface display titration with human LIF, flow cytometry; reference yeast-displayed LIFR WT
Experimental: as §1, §4

human LIF-His = molecular target: T3, human LIF-His (human, UniProt P15018 23-202); assay: competition on yeast: displayed wild-type LIFR or gp130 saturated with LIF-His, inhibitor added in excess; anti-His signal normalized to LIF alone
T3 construct: also called soluble LIF-His; not shown: His6 tag
Experimental: FIG. 14 LIF inhibitors compete LIF away from wild-type receptors. Panel A: Schematic illustration of competitive binding assay. […] Human LIF-His is incubated at saturating concentrations. Inhibitors (LIFR-[…]-Fc depicted) are then co-incubated with LIF-bound yeast, in excess. LIF binding is detected via His6-tag on LIF. The less LIF that remains bound after inhibitor incubation, the better the inhibitor is able to compete LIF away from the WT receptor. Panel B: Results from competitive binding experiment. […] Fraction bound is the fluorescent emission detected from the LIF-His, normalized to No Inhibitor added. Competitive binding of LIFR-WT-Fc, gp130-ELDME-Fc (Eng.), LIFR-[…]-Fc (Eng.), LIFR-gp130 Fusion-Fc (Eng.), LIFR-gp130 Heterodimeric Fc (Eng.), Anti-LIF mAb L1, and Anti-LIF mAb G1 are shown.
Human LIF-His is introduced at saturating concentrations. Inhibitors (LIFR-[…]-Fc depicted) are then co-incubated with LIF-bound yeast, in excess. LIF binding is detected via His6-tag on LIF. The less LIF that remains bound after inhibitor incubation, the better the inhibitor is able to compete LIF away from the WT receptor.

**Q.** With B1 as the binder, how does the “EC50 (read off the curve)” value [1] read?
**A.** The value was ~10 nM.

**Q.** What about the “Score (binding score)” value [2] of the same binder?
**A.** Its value is 16.

**Q.** With B2 as the binder, how does the Kd [3] read?
**A.** Its Kd is 5 nM.

**Q.** And the “fold higher affinity compared to wild-type (WT)” value [4]?
**A.** The value was 12 fold.

**Q.** B3 was tested. Which “EC50 (read off the curve)” value [5] did it give?
**A.** Its value is ~0.06 nM.

**Q.** Does B3 bind [6]?
**A.** Result: no binding

**Q.** Does B3 bind [7]?
**A.** Result: no binding

**Q.** And the Kd [8]?
**A.** The Kd was 30.8 nM.

**Q.** How did the Kd [9] turn out when B4 was run?
**A.** Its Kd is 1.09 nM.

**Q.** Which “EC50 (read off the curve)” value [10] does the source give for B5 here?
**A.** The value was ~1 nM.

**Q.** And the “Score (normalized binding score)” value [11]?
**A.** The value was 1.32.

**Q.** For B6, which Kd [3] is on record?
**A.** The Kd was 0.03 nM.

**Q.** What about the “fold higher affinity compared to wild-type (WT)” value [12] of the same binder?
**A.** The value was 32 fold.

**Q.** Does B7 bind [6]?
**A.** Result: no binding

**Q.** Does B7 bind [7]?
**A.** Result: no binding

**Q.** Does B7 bind (human LIF-His)?
**A.** Result: binds
